Patent US20090275085A1, “Enzyme for Obtaining Prebiotic Oligosaccharides” (CONSEJO SUPERIOR DE INVESTIGACIONES CIENTIFICAS, priority 2004, published 2009)

Key:
[1] = substrate: OC[C@H]1O[C@H](O[C@H]2[C@H](O)[C@@H](O)[C@@H](O[C@H]3[C@H](O)[C@@H](O)[C@@H](O[C@H]4[C@H](O)[C@@H](O)[C@@H](O[C@H]5[C@H](O)[C@@H](O)[C@@H](O[C@H]6[C@H](O)[C@@H](O)[C@@H](O[C@H]7[C@H](O)[C@@H](O)C(O)O[C@@H]7CO)O[C@@H]6CO)O[C@@H]5CO)O[C@@H]4CO)O[C@@H]3CO)O[C@@H]2CO)[C@H](O)[C@@H](O)[C@@H]1O; assay: Kinetic constants of X. dendrorhous α-glucosidase glycosylhydrolase activity; assay type: biochemical, Xanthophyllomyces dendrorhous; conditions: other: 30 minutes, 100 ng of enzyme; starch supplied by Avebe, 8100 Da
Experimental: The tests were carried out in 30 minutes and with 100 ng of enzyme for each reaction.

[2] = substrate: OC[C@H]1O[C@H](O[C@H]2[C@H](O)[C@@H](O)[C@@H](O[C@H]3[C@H](O)[C@@H](O)C(O)O[C@@H]3CO)O[C@@H]2CO)[C@H](O)[C@@H](O)[C@@H]1O; assay: purified protein, by the assay type; conditions: other: 30 minutes, 100 ng of enzyme; starch supplied by Avebe, 8100 Da

B1: X. dendrorhous α-glucosidase (purified enzyme) (Phaffia rhodozyma) (protein)
chain: SSPSSFQGPSELLSNQKRYSKRDNTGSYSLNTTACGGYSVSSVDSTGNGLQAHLSLNGEPCRAFGVDYTDLLVDVEYQTQERIRVHIYDADKIEFQVPENIFPKPQSDNGLDLNQTDLVFNHQENPFAFWITRRNASDDETPIFDTRPSSKTSVDYPIEPPYGGVEKVNSSTAVPDESGGLVFEAGYLEISSFLPKDANIFGLGEVVATSGFRRNSSATVQTMWARDVGDPENQNMYGDHPIYIETRFNKNGASSSHGVFLLNSEGMDIVLRDEVIEYRPLGGSLDFYFISGPTPIKVIEQYSEISGRSLLHPYWSYGFHLCRWGYDNITQNREIVQSMKDANLPLETFWNDIDWMDTYRNFVPAPNRFEPADYKAFVDELHANNQHYIPIIDAAIGVVTNDTDVYDTFTAGDAANTYIKNPDGSNYIGKVWPGYTVFPDWFQNSTQDWWTEAFINYSQIVEFDGIWIDMNEPSSFCEGSCGSSADLNNITPPFLLPGQPGAVTLIDGTFPEGYNATLWGYSGNLTINGSLTFNSTPPNYGRPDRRSQLSRRVGQGVDVNTPAYEIHNALDKLAISTVSPNATHLNGDIQDIDVHNLFGYMEGIATFNVWNTYKPNKRPFIVSRSTFPGAGTKVAHWLGDNYSTWKYLRYVNQGVLQFQIYGIPMVGADTCGFAGNTDEELCNRWMQLAAFYPFFRNHNIKSALAQEPFRWDSVAEATRNATAIRYALLPYWYTLFYQASSVGTPPIRALFYEFDQEELLSVDAQFLVGRNVLVTGAMYPNITSVEGYLPGGDDEIWRDWYTHEVIKPTSDDGKYDFPAPLGHIPVTIRSGAIFLLHSEPGMTVYDTRESPYSILVSLDKSSEAEGYAFIDDGESFPVTDSREVHLGAAEGKVYGWTSGSYNVGQKLAQVTVLGVKTEPSTVTFNGQAITTGWTYEADLERFVVTGLQGDLNGGWELDWA
For B1, the Km [1] was 860 µM, the kcat [1] was 5 s⁻¹ and the kcat/Km [1] was 5800 M⁻¹ s⁻¹. It also gave a Km [2] of 550 µM, a kcat [2] of 4 s⁻¹ and a kcat/Km [2] of 7270 M⁻¹ s⁻¹.
